Assay results published in paper PMC10092763.

Target: PAX2 (UniProt Q02962)
Assay: co-IP, FLAG-PAX2 with HA-AFF4
Conditions: reference: wild type; sites S388

AFF4 (from UniProt Q9UHB7) S388A
binding against the reference: weaker
